In one assay the target is eTau2 (UniProt P10636). Briefly: relative binding affinity, method not named; eTau 2.
In the next assay the target is eTau1b (UniProt P10636). The experiment in a line: relative binding affinity, method not named; eTau 1b.

In general, Kd refers to a measure of binding affinity in units of concentration. A higher Kd goes with a looser complex.

Positions count from the first letter of the chain named.

Chain of UniProt P10636 (P10636 other isoform, or with tags, fused parts or gaps): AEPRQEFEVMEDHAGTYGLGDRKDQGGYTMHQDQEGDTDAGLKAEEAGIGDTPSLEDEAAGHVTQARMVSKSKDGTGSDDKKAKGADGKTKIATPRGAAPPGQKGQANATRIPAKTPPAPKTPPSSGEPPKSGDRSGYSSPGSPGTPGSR

B1: humanized IPN002 variant VH1/Vk2 (antibody, V domains shown)
VH: EVHLVESGGALVKPGGSLRLSCAASGFSFSKYGMSWVRQAPGKGLEWVATISSSGSRTYYPDSVKGRFTISRDNAKNTLYLQMSSLKSEDTAMYYCSISWDGAMDYWGQGTSVTVSS
VL: DVVMTQSPLSLPVTLGQPASISCKSSQSIVHSNGNTYLEWYLQKPGQSPQLLVYKVSNRFSGVPDRFSGSGSGTDFTLKISRVEAEDVGTYYCFQGSLVPWAFGGGTKVEIK
Take B1: the Kd with eTau2 stood at 361 pM; with eTau1b, 558 pM.

B2: humanized IPN002 variant VH3/Vk1 (antibody, V domains shown)
VH: B1 VH with H3Q, S84N, K87R, S88A, S112T
VL: B1 VL with V3L
For B2, the Kd is 705 pM in the assay with eTau2 and 529 pM in the assay with eTau1b.

B3: humanized IPN002 variant VH1/Vk1 (antibody, V domains shown)
VH: B1 VH
VL: B1 VL with V3L
In the case of B3, the Kd with eTau2 is 465 pM; with eTau1b, 737 pM.

B4: humanized IPN002 variant VH4/Vk4 (antibody, V domains shown)
VH: B1 VH with H3Q, S84N, K87R, S88A, S97A, S112T
VL: B1 VL with V53I, T90V
For the molecule B4, the figures for the Kd with eTau2 and in the assay with eTau1b were 564 pM and 535 pM, respectively.

B5: humanized IPN002 variant VH1/Vk3 (antibody, V domains shown)
VH: B1 VH
VL: B1 VL with T90V
With B5, the results for the Kd in the assay with eTau2 and in the assay with eTau1b were 444 pM and 590 pM, respectively.

B6: humanized IPN002 variant VH3/Vk2 (antibody, V domains shown)
VH: B1 VH with H3Q, S84N, K87R, S88A, S112T
VL: B1 VL
As for B6, the Kd was 408 pM with eTau2 and 614 pM with eTau1b.

B7: humanized IPN002 variant VH3/Vk3 (antibody, V domains shown)
VH: B1 VH with H3Q, S84N, K87R, S88A, S112T
VL: B1 VL with T90V
In the case of B7, the Kd was 471 pM with eTau2 and 689 pM with eTau1b.

B8: humanized IPN002 variant VH2/Vk3 (antibody, V domains shown)
VH: B1 VH with S84N, K87R, S88A, S112T
VL: B1 VL with T90V
In the case of B8, the values for the Kd with eTau2 and with eTau1b were 261 pM and 287 pM, respectively.

B9: humanized IPN002 variant VH2/Vk4 (antibody, V domains shown)
VH: B1 VH with S84N, K87R, S88A, S112T
VL: B1 VL with V53I, T90V
Turning to B9, the Kd with eTau2 amounted to 354 pM; with eTau1b it was 520 pM.

B10: humanized IPN002 variant VH3/Vk4 (antibody, V domains shown)
VH: B1 VH with H3Q, S84N, K87R, S88A, S112T
VL: B1 VL with V53I, T90V
As to B10, the results for the Kd with eTau2 and with eTau1b were 447 pM and 382 pM, respectively.

B11: humanized IPN002 variant VH4/Vk1 (antibody, V domains shown)
VH: B1 VH with H3Q, S84N, K87R, S88A, S97A, S112T
VL: B1 VL with V3L
Turning to B11, the Kd with eTau2 was 405 pM; in the assay with eTau1b it was 359 pM.

B12: humanized IPN002 variant VH4/Vk3 (antibody, V domains shown)
VH: B1 VH with H3Q, S84N, K87R, S88A, S97A, S112T
VL: B1 VL with T90V
With B12, the dissociation constant Kd with eTau2 was determined as 473 pM; in the assay with eTau1b, 313 pM.

B13: humanized IPN002 variant VH2/Vk1 (antibody, V domains shown)
VH: B1 VH with S84N, K87R, S88A, S112T
VL: B1 VL with V3L
Regarding B13, the Kd was 225 pM in the assay with eTau2 and 215 pM in the assay with eTau1b.

B14: humanized IPN002 variant VH4/Vk2 (antibody, V domains shown)
VH: B1 VH with H3Q, S84N, K87R, S88A, S97A, S112T
VL: B1 VL
B14: the Kd in the assay with eTau2 was 451 pM; with eTau1b, 483 pM.

B15: humanized IPN002 variant VH1/Vk4 (antibody, V domains shown)
VH: B1 VH
VL: B1 VL with V53I, T90V
As to B15, the Kd with eTau2 is 427 pM; with eTau1b, 597 pM.

B16: humanized IPN002 variant VH2/Vk2 (antibody, V domains shown)
VH: B1 VH with S84N, K87R, S88A, S112T
VL: B1 VL
In the case of B16, the Kd with eTau2 turned out to be 283 pM; with eTau1b it was 229 pM.
